Bridges are numbered along the chain shown (N, C = ends). [ ]: non-standard residue; d: D form. Aph(Hor) = 4-amino-phenylalanine(L-hydroorotic acid); dPhe(4-NHCONH2) = NC(=O)Nc1ccc(C[C@@H](N)C(=O)O)cc1; Cpa = not defined here; Ahx = NCCCCCC(=O)O
B1: [99mTc]Tc-N4-JR11 (peptide)
chain: {(99mTc)Tc‑N4-Cpa}-[dC][Aph(Hor)][dPhe(4-NHCONH2)]KTC[dY]-NH2
modifications: disulfide 1-6 (inferred); reading uncertain; also: 99mTc complex, printed as Cpa-c(dCys-Aph(Hor)-dAph(Cbm)-Lys-Thr-Cys)-dTyr-NH2
B2: [99mTc]Tc-HYNIC-Ahx-JR11 (peptide)
chain: {(99mTc)Tc‑HYNIC/EDDA-Ahx-Cpa}-[dC][Aph(Hor)][dPhe(4-NHCONH2)]KTC[dY]-NH2
modifications: disulfide 1-6 (inferred); reading uncertain; also: 99mTc complex, EDDA coligand, printed as Cpa-c(dCys-Aph(Hor)-dAph(Cbm)-Lys-Thr-Cys)-dTyr-NH2

Target: somatostatin receptor type 2 (SST2) (Homo sapiens, UniProt P30874)
Assay: saturation binding of radioligand on HEK-SST2 cell membranes

somatostatin receptor type 2 (SST2), sequence (P30874 whole entry): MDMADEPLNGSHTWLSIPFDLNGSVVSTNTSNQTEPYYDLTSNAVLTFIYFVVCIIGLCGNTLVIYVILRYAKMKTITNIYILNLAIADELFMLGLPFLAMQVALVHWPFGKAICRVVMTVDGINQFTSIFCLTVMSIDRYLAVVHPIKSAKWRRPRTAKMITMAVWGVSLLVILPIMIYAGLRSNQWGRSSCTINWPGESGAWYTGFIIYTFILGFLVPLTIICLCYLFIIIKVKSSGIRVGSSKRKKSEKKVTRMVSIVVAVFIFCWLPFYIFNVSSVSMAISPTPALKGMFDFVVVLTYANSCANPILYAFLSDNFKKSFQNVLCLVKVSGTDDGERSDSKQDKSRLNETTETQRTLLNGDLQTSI

Point of comparison: B2, Kd 0.85 nM. Against it:
- {(99mTc)Tc‑N4-Cpa}-[dC]Y[dW]KTC[dY]-NH2 (disulfide 1-6 (inferred); reading uncertain; also: 99mTc complex) [[99mTc]Tc-N4-SS01] — within 1.5-fold, 0.92 nM
- B1 — within 1.5-fold, 0.6 nM
- {(99mTc)Tc‑HYNIC/EDDA-Ahx-Cpa}-[dC]Y[dW]KTC[dY]-NH2 (disulfide 1-6 (inferred); reading uncertain; also: 99mTc complex, EDDA coligand) [[99mTc]Tc-HYNIC-Ahx-SS01] — 1.9-fold higher, 1.6 nM
